# Laboratory results from US20260009052, “CAS12 PROTEINS AND USES THEREOF” (GUANGZHOU REFORGENE MEDICINE CO., LTD., published 2026).
# T1: C12-279 (synthetic construct)
# T1 chain: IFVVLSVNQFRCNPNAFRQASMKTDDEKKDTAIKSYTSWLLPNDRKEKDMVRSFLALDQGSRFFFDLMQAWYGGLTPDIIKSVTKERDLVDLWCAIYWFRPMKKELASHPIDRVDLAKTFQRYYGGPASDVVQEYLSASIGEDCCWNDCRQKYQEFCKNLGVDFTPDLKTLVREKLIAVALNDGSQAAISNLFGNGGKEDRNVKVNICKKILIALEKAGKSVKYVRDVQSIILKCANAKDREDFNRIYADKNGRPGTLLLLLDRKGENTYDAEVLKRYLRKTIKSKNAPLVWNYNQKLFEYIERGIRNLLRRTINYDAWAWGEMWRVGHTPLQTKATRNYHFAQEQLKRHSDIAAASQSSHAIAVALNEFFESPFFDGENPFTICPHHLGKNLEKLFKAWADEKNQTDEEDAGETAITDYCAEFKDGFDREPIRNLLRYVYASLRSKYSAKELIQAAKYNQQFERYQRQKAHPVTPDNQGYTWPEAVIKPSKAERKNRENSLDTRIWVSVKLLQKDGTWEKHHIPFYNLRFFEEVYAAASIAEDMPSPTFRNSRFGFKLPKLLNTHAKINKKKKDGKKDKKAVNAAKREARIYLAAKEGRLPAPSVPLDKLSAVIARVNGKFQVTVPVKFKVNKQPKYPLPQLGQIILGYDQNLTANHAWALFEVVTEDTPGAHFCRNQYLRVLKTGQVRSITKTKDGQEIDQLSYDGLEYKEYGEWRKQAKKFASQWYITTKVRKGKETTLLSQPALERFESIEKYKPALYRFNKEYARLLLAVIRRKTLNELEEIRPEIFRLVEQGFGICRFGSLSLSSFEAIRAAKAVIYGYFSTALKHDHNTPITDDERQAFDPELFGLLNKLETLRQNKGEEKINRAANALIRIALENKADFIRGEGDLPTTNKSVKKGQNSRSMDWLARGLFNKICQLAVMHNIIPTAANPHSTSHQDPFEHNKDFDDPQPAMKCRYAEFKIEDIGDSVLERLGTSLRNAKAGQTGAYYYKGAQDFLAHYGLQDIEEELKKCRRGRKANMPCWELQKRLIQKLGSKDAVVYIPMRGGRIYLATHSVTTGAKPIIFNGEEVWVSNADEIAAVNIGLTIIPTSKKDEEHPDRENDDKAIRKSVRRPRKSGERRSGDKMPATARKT
# T2: C12-279 L260R (synthetic construct, L260R)
# T2 chain: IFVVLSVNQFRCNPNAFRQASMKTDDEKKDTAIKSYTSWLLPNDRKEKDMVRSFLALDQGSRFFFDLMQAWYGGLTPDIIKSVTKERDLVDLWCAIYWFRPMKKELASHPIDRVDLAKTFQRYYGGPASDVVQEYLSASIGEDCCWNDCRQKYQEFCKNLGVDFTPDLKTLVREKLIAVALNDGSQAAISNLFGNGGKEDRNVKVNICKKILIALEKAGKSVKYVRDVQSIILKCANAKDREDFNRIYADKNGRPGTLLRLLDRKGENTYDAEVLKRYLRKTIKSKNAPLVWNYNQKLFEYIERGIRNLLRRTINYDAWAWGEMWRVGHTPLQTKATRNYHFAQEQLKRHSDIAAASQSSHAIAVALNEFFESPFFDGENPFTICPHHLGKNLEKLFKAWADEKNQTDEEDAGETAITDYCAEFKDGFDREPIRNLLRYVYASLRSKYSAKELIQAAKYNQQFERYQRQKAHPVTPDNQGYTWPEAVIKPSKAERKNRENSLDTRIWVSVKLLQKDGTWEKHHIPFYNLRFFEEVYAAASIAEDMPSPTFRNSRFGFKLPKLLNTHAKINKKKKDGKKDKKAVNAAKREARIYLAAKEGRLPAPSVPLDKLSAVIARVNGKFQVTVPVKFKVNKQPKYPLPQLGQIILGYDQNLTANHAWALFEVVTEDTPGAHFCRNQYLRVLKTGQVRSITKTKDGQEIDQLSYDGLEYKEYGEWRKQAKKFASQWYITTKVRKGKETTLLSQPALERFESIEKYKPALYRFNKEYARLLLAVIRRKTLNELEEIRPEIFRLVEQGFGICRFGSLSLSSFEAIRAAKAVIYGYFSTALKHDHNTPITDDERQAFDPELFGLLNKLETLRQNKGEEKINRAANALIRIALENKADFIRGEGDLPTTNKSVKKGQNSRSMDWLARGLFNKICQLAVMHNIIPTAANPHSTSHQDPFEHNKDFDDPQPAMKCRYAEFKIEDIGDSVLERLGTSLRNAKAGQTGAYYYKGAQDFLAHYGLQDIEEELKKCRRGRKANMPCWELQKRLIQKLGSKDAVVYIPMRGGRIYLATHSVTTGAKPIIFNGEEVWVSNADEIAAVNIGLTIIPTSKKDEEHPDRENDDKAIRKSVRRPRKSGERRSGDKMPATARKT
# Key:
# [1] = molecular target: T1, C12-279; test: cell_activity; PAM TTG; GFP reporter; details: tags: NLS
# [2] = molecular target: T2, C12-279 L260R; test: cell_activity; PAM TTG; +/-0.14
# Description: Transfection: transfection was performed 12-14 h after plating. 1.5 μL PEI (Yeasen Biotechnology, 40815ES03, Polyethylenimine Linear (PEI) MW25000) and 500 ng mutation clone plasmid were added to 100 μL Opti-MEM per well of the 24-well plate, mixed, and added to the NAAN cell line for cell transfection after placing at room temperature for 20 min. After overnight transfection, a fresh culture medium was replaced, and the culture was continued for 72 h, followed by flow cytometry. Editing efficiencies of different mutant clones were characterized by the proportion of GFP-positive cells.
# Editing efficiency of some selected mutants was tested in Reporter3 cell line using the same manner as described for the NAAN reporter system, except that the cell line was changed from NAAN cell line to Reporter3 cell line.
binder,measurement,setting,value
C12-279 Reporter3 sgRNA ; Reporter3 target (ssRNA ; dsDNA) RNA: GUAAUGCGUCUCCCAUUGACGCCUCACCUCGCGACGCAAUGAUG DNA 1: CTCACCTCGCGACGCAATGATG DNA 2: CATCATTGCGTCGCGAGGTGAG,binding signal,[1],1 fold of C12-279
same,binding signal,[2],0.66 fold of C12-279
